The supplement of paper PMC11780869

Test system: Bacillus subtilis
Test: cleaved RNA product abundance (RNA/gDNA barcode ratio) relative to median wild-type variant (ratio to wild type); higher = more accumulation of the downstream cleavage product
Details: experiment (reporter, strain, medium): exp 8a: truncated aprE reporter, strain BJT201 with 2% xylose (RNase J1 expressed); cleavage site: glnRA (positions -5 to +31 mutated)
Outline: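 In LB at 37°C, B. subtilis cultures went from OD600 0.0003 to 0.3. Their chromosomes held barcoded reporter mRNAs, truncated aprE or tetM, with RNase Y cleavage-site windows mutagenized via oligos at a 9% error rate. Cleaved RNA, chosen by gel, was reverse transcribed and barcode-sequenced alongside genomic DNA barcodes with UMI collapsing, giving a per-construct RNA:gDNA ratio scaled to the median construct with the unmutated site. This scaled ratio is termed cleaved product abundance.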

Point of comparison: “CGACATGTCCCGCTTCTTTCATTAATACGTTAGCAACTTTTTTGCTATATACATTTACCTTTTAAGAGGAGGAAT”, “cleaved RNA product abundance” value 0.721. Against it:
- CGACATGTCCCGCTTCTTTCATTAATACATTAGCAACTGTTTTGCTATATACATTTACCTTTTAAGAGGAGGAAT — higher, 0.748
- CGACATGTCCCGCTTCTTTCATTAATACATTAGCGACTTTTTTGCTATATACACTTACCTTTTAAGAGGAGGAAT — lower, 0.352
- CGACATGTCCCGCTTCTTTCATTAATACGATAGCAACTGTTTTGCTATATACATTTACCTTTTAAGAGGAGGAAT — higher, 0.935
- CGACATGTCCCGCTTCTTTCATTAATACGTAAGCAACTGTTTTGCTATATACATTTACCTTTTAAGAGGAGGAAT — lower, 0.225
- CGACATGTCCCGCTTCTTTCATTAATACGTTAACAACTGTTTTGCTATATACATTTACCTTTTAAGAGGAGGAAT — lower, 0.195
- CGACATGTCCCGCTTCTTTCATTAATACGTTACCAACTGTTTTGCTATATACATTTACCTTTTAAGAGGAGGAAT — lower, 0.215
- CGACATGTCCCGCTTCTTTCATTAATACGTTAGAAACTGTTTTGCTATATACATTTACCTTTTAAGAGGAGGAAT — lower, 0.292
- CGACATGTCCCGCTTCTTTCATTAATACGTTAGCAAATGTTTTGCTATATACATTTACCTTTTAAGAGGAGGAAT — higher, 1.26
- CGACATGTCCCGCTTCTTTCATTAATACGTTAGCAACTATTTTGCTATATACATTTACCTTTTAAGAGGAGGAAT — higher, 1.33
- CGACATGTCCCGCTTCTTTCATTAATACGTTAGCAACTGATTTGCTATATACATTTACCTTTTAAGAGGAGGAAT — higher, 1.24
- CGACATGTCCCGCTTCTTTCATTAATACGTTAGCAACTGTTATGCTATATACATTTACCTTTTAAGAGGAGGAAT — higher, 0.886
- CGACATGTCCCGCTTCTTTCATTAATACGTTAGCAACTGTTTAGCTATATACATTTACCTTTTAAGAGGAGGAAT — lower, 0.376
- CGACATGTCCCGCTTCTTTCATTAATACGTTAGCAACTGTTTTACTATATACATTTACCTTTTAAGAGGAGGAAT — lower, 0.547
- CGACATGTCCCGCTTCTTTCATTAATACGTTAGCAACTGTTTTGATATATACATTTACCTTTTAAGAGGAGGAAT — lower, 0.527
- CGACATGTCCCGCTTCTTTCATTAATACGTTAGCAACTGTTTTGCCATATACATTTACCTTTTAAGAGGAGGAAT — lower, 0.23
- CGACATGTCCCGCTTCTTTCATTAATACGTTAGCAACTGTTTTGCTAAATACATTTACCTTTTAAGAGGAGGAAT — lower, 0.266
- CGACATGTCCCGCTTCTTTCATTAATACGTTAGCAACTGTTTTGCTACATACATTTACCTTTTAAGAGGAGGAAT — lower, 0.381
- CGACATGTCCCGCTTCTTTCATTAATACGTTAGCAACTGTTTTGCTATAAACATTTACCTTTTAAGAGGAGGAAT — lower, 0.505
- CGACATGTCCCGCTTCTTTCATTAATACGTTAGCAACTGTTTTGCTATATAAATTTACCTTTTAAGAGGAGGAAT — higher, 1.02
- CGACATGTCCCGCTTCTTTCATTAATACGTTAGCAACTGTTTTGCTATATACATGTACCTTTTAAGAGGAGGAAT — lower, 0.369
- CGACATGTCCCGCTTCTTTCATTAATACGTTAGCAACTGTTTTGCTATATACATTCACCTTTTAAGAGGAGGAAT — lower, 0.695
- CGACATGTCCCGCTTCTTTCATTAATACGTTAGCAACTGTTTTGCTATATACATTTACCATTTAAGAGGAGGAAT — lower, 0.353
- CGACATGTCCCGCTTCTTTCATTAATACGTTAGCAACTGTTTTGCTATATACATTTACCTTTTAAGAGGAGGAAT — higher, 0.97
- CGACATGTCCCGCTTCTTTCATTAATACGTTAGCAACTGTTTTGCTATATACATTTACTTTTTAAGAGGAGGAAT — lower, 0.472
- CGACATGTCCCGCTTCTTTCATTAATACGTTAGCAACTGTTTTGCTATATACATTTATCTTTTAAGAGGAGGAAT — higher, 1.51
- CGACATGTCCCGCTTCTTTCATTAATACGTTAGCAACTGTTTTGCTATATACGTTTACCTTTTAAGAGGAGGAAT — lower, 0.284
- CGACATGTCCCGCTTCTTTCATTAATACGTTAGCAACTGTTTTGCTATATAGATTTACCTTTTAAGAGGAGGAAT — higher, 0.956
- CGACATGTCCCGCTTCTTTCATTAATACGTTAGCAACTGTTTTGCTATATATATTTACCTTTTAAGAGGAGGAAT — higher, 1.83
- CGACATGTCCCGCTTCTTTCATTAATACGTTAGCAACTGTTTTGCTATATCCATTTACCTTTTAAGAGGAGGAAT — lower, 0.193
- CGACATGTCCCGCTTCTTTCATTAATACGTTAGCAACTGTTTTGCTATTTACATTTACCTTTTAAGAGGAGGAAT — lower, 0.232
- CGACATGTCCCGCTTCTTTCATTAATACGTTAGCAACTGTTTTGTTATATACATTTACCTTTTAAGAGGAGGAAT — lower, 0.372
- CGACATGTCCCGCTTCTTTCATTAATACGTTAGCAACTGTTTTTCTATATACATTTACCTTTTAAGAGGAGGAAT — lower, 0.455
- CGACATGTCCCGCTTCTTTCATTAATACGTTAGCAAGTGTTTTGCTATATACATTTACCTTTTAAGAGGAGGAAT — higher, 0.882
- CGACATGTCCCGCTTCTTTCATTAATACGTTAGCAATAGTTTTGCTATATACATTTACCTTTTAAGAGGAGGAAT — higher, 0.874
- CGACATGTCCCGCTTCTTTCATTAATACGTTAGCAATTGTTTTGCTATATACATTTACCTTTTAAGAGGAGGAAT — higher, 0.823
- CGACATGTCCCGCTTCTTTCATTAATACGTTAGCATCTGTTTTGCTATATACATTTACCTTTTAAGAGGAGGAAT — higher, 0.87
- CGACATGTCCCGCTTCTTTCATTAATACGTTAGCTACTGTTTTGCTATATACATTTACCTTTTAAGAGGAGGAAT — lower, 0.562
- CGACATGTCCCGCTTCTTTCATTAATACGTTAGTAACTGTTTTGCTAAATACATTTACCTTTTAAGAGGAGGAAT — lower, 0.285
- CGACATGTCCCGCTTCTTTCATTAATACGTTAGTAACTGTTTTGCTATATACATTTACCTTTTAAGAGGAGGAAT — lower, 0.334
- CGACATGTCCCGCTTCTTTCATTAATACGTTATCAACTGTTTTGCTATATACATTTACCTTTTAAGAGGAGGAAT — lower, 0.281
- CGACATGTCCCGCTTCTTTCATTAATACGTTCGCAACTGTTTTGCTATATACATTTACCTTTTAAGAGGAGGAAT — lower, 0.216
- CGACATGTCCCGCTTCTTTCATTAATACGTTTGCAACTGTTTTGCTATATACATTTACCTTTTAAGAGGAGGAAT — higher, 0.769
- CGACATGTCCCGCTTCTTTCATTAATACTTTAGCAACTGTTTTGCTATATACATTTACCTTTTAAGAGGAGGAAT — lower, 0.611
- CGACATGTCCCGCTTCTTTCATTAATAGGTTAGCAACTGTTTTGCTATATACATTTACCTTTTAAGAGGAGGAAT — higher, 0.766
- CGACATGTCCCGCTTCTTTCATTAATATGTTAGCAACTGTTTTGCTATATACATTTACCTTTTAAGAGGAGGAAT — higher, 0.819
- CGACATGTCCCGCTTCTTTCATTAATCAATTAGCAACTGTTTTGCTATATACATTTACCTTTTAAGAGGAGGAAT — higher, 0.946
- CGACATGTCCCGCTTCTTTCATTAATCAGGTAGCAACTGTTTTGCTATATACATTTACCTTTTAAGAGGAGGAAT — higher, 0.783
- CGACATGTCCCGCTTCTTTCATTAATCAGTAAGCAACTGTTTTGCTATATACATTTACCTTTTAAGAGGAGGAAT — lower, 0.489
- CGACATGTCCCGCTTCTTTCATTAATCAGTCAGCAACTGTTTTGCTATATACATTTACCTTTTAAGAGGAGGAAT — lower, 0.367
- CGACATGTCCCGCTTCTTTCATTAATCAGTGAGCAACTGTTTTGCTATATACATTTACCTTTTAAGAGGAGGAAT — lower, 0.37
- CGACATGTCCCGCTTCTTTCATTAATCAGTTAACAACTGTTTTGCTATATACATTTACCTTTTAAGAGGAGGAAT — lower, 0.249
- CGACATGTCCCGCTTCTTTCATTAATCAGTTAACTTTTTTGCTATATATATTTACCTTTTAAGAGGAGGAATTTT — lower, 0.238
- CGACATGTCCCGCTTCTTTCATTAATCAGTTACCAACTGTTTTGCTATATACATTTACCTTTTAAGAGGAGGAAT — lower, 0.267
- CGACATGTCCCGCTTCTTTCATTAATCAGTTAGAAACTGTTTTGCTATATACATTTACCTTTTAAGAGGAGGAAT — lower, 0.328
- CGACATGTCCCGCTTCTTTCATTAATCAGTTAGCAACAGTTTTGCTATATACATTTACCTTTTAAGAGGAGGAAT — higher, 0.832
- CGACATGTCCCGCTTCTTTCATTAATCAGTTAGCAACTATTTTGCTATATACATTTACCTTTTAAGAGGAGGAAT — higher, 1.97
- CGACATGTCCCGCTTCTTTCATTAATCAGTTAGCAACTGTATTGCTATATACATTTACCTTTTAAGAGGAGGAAT — lower, 0.59
- CGACATGTCCCGCTTCTTTCATTAATCAGTTAGCAACTGTGTTGCTATATACATTTACCTTTTAAGAGGAGGAAT — lower, 0.251
- CGACATGTCCCGCTTCTTTCATTAATCAGTTAGCAACTGTTATGCTATATACATTTACCTTTTAAGAGGAGGAAT — lower, 0.578
- CGACATGTCCCGCTTCTTTCATTAATCAGTTAGCAACTGTTGTGCTATATACATTTACCTTTTAAGAGGAGGAAT — lower, 0.354
- CGACATGTCCCGCTTCTTTCATTAATCAGTTAGCAACTGTTTAGCTATATACATTTACCTTTTAAGAGGAGGAAT — higher, 0.775
- CGACATGTCCCGCTTCTTTCATTAATCAGTTAGCAACTGTTTTACTATATACATTTACCTTTTAAGAGGAGGAAT — lower, 0.611
- CGACATGTCCCGCTTCTTTCATTAATCAGTTAGCAACTGTTTTCCTATATACATTTACCTTTTAAGAGGAGGAAT — lower, 0.433
- CGACATGTCCCGCTTCTTTCATTAATCAGTTAGCAACTGTTTTGATATATACATTTACCTTTTAAGAGGAGGAAT — lower, 0.648
- CGACATGTCCCGCTTCTTTCATTAATCAGTTAGCAACTGTTTTGCAATATACATTTACCTTTTAAGAGGAGGAAT — lower, 0.332
